Assay results taken from the nanobody polyreactivity screen of Harvey et al. (2022).

Assay: yeast display, Sf9 membrane polyspecificity reagent, FACS + sequencing; frameworks hold sequencing errors
In short: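 Using colony PCR, genes from sorted yeast display clones were amplified, then sequenced on MiSeq at 2 × 250 and filtered by CDR length. The clones had been stained with 10% biotinylated, detergent-solubilized Sf9 membrane reagent for 1 hour at 4 °C and sorted by FACS into low and high (top ~1%) gates on anti-HA and streptavidin fluorescence. Polyreactivity labels come from the gate of origin.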

Row | Sequence | polyreactivity (PSR sort gate)
1 | QVQLVESGGGLVQAGGSLRLSCASSGRIFRNNVMGWYRQAHGKVRELVAAISATGTITRYADSVKGSFTISRDYSKNTVYLQMNSLKPEDTAVYYCAKDRGWWLGFIMDYWGQGSQVTVSS | low polyreactivity
2 | QVQLVESGGGLVQAGGSLRLSCAASGRIFKGYAMGWYRQAPGKERELVAAITWRGGTTYYADSVKGRFTISRDNAKNTVYLQMNSLKPEDTAVYYCAVSGKTAHSPQRYYYWGQGTQVTVSS | high polyreactivity
3 | QVQLVESGGGLVQAGGSLRLSCAASGFTFYGYAMVWYRQAPGKERELLAAITFRGDRTYYADSVKGRFTISRDIAKNTVYLQMNSLKPEDTAVYYCAAERPSGWYSYLSLYIVRRGYWGQGTQVTVSS | low polyreactivity
4 | QVQLVESGGGLVQAGGSLRLSCAASGSTFYYYAMGWYRQAPGKERELVAAIDWSGESTYYADSVKGRFTISRDKAKKTVYLQMHSLKPEDTAVYYCAADLGYPWGYVLFYKQSISYYYWGQGTQVTVSS | low polyreactivity
5 | QVQLEESGGGLVQAGGSLRLSCAASGRNISRNAMGGYRQPPGKERELVAAITQSGTSTYYADSVKGRFTLSRDNAKNTVYLQMKSLIPEDTAVYYCNAYRQYRYDYWGQGSQVTVSS | low polyreactivity
6 | QVQLVESGGGLVQAGGSLRLSCAASGFTFNRYTMGWYRQAPGKERELVASISVRGSRTYYADSVKGRFTISRDNAKNTVYLQMNSLKPEDTAVYYCNAKTYVFYRLRSYYYWGQGTQVTVSS | high polyreactivity
7 | QVQLVESGGGLVQAGGSLRLSCAASGLIFGWNAMGWYRQAPGKERELVAAISSGGSTNYADSVKGRFTISRDNAKNTVYLQMNRLKPEDNAVYYCATRNGYSGTYGYWGQGTQVTVSS | low polyreactivity
8 | QVQLVESGGGLVQAGGSLRLSCAASGRILAGYTMGWYRQAPGKERELVAAISDRGGSTYYADSVKGRFTISRDNAKNTVYLQMNSLKPEDTAVYYCNAVVYSYALTPSYAGDYWGQGTQVTVSS | low polyreactivity
9 | QVQLVESGGGLVQAGGSLRLSCAASGSTFSRNAMGWYRQAPGKERELVATISRSGRTNYADSVKGRFTISRDNAKNTVYLQMNSLKPEDTAVYYCNAGYRRSYEYWGQGTQVTVSS | low polyreactivity
10 | QVQLVESGGGLVQAGGSLRLSCAASGRTFGWNAMGWYRQAPGKERELVAAISLRGTSTYYADSVKGRFTISRDNAKNTVYLQMNSLKPEDTAVYYCAARGRNGVNYWGQGTQVTVSS | high polyreactivity
11 | QDQLVESGGGLVQAGGSLRLSCAASGLTFDSYAMGWYRQAPGKERELVAAISWNTASTYYADSVKGRFTISRDNAKNTVYLQMNSLKPEDTAVYYCAAARSRRPHYDYWRQGTQVTVSS | high polyreactivity
12 | QVQLGESGGGLVQAGGSLSLSCAASGNTFVSNAMGWYRQATGKERELVATISSGAHTYYADSVKGRFTISRDNAKNTVYLQMKSLKPEDTAVYYCASTSYGYWVGYIPEVDFWGQGTQVSVSS | low polyreactivity
13 | QVQLVESGGGLVQAGGSLRLSCAASGSIFYPYAMGWYRQAPGKERELVATINEDGGSTYYADSVKGRFTISRDNAKNTVYLQMNSLKPEDTAVYYCNTDHFEDYHTDFWSDYEYWGQGTQVTVSS | low polyreactivity
14 | QVQLVESGGGLVQAGGSLRLSCAASGFTFGGNAMGWYRQAPGKERELVAAISGRGGRTFYADSVKGRFTISRDNAKNTVYLQMNSLKPEDTGVYYCAAYYRYDVGAYDYWGQGTQVTVSS | high polyreactivity
15 | QVQLVESGGGLVQAGGSLRLSCAASGSTLYRNGMGWYRQAPGKEMEFVAAISWSGASTYYADSVKGRFTISRDNAKNTVYLQMNSLKPEDTAVYYCNARGPTVYETHNYWGQGTQVTVSS | low polyreactivity
16 | QVQLVDSGGGLVQAGGSLRLSCAAYGSNLYYAMGWYIQAPGKERELVATITRGGSTYYADSVKGRFTISRDNAKNTVYLQMNSLKPEDTAVYYCAARRAVRVGYYWHDISSYDYWGQGTQVTVSS | low polyreactivity

Row | Sequence | polyreactivity (PSR sort gate)
17 | QVQLVESGRGLVQAGGRHRISCAASGSIIHDYAMGLYSQAPGKERELVAVISTSGGSTYYADSVKGRFTMSRDNAKNTVYLQMISLKPEETEVYYCNARTVGPYPSHAALEYDSWGPGTQVTVSS | low polyreactivity
18 | QVQLVESGGGLVQAGGRLPLSCAASGSTYSVNAMGWYRQAPGKERELVAAITRSGGSTYYADSVKGRFTISRDNAKNTVYLQMNSLNPEDTAVYYCAAEIYPLGEYWGQGTQVTVSS | low polyreactivity
19 | QVQLVESGGGLVQAGGSLRLSCAASGRTFYLYAMGWYRQAPGKERELVAAITKSGGSTYYADSVKGRFTISRDNAKNTVYLQMNSLKPEDTAVYYCATDGRWRLAGAFTGKRRTYDYWGQGTQVTVSS | low polyreactivity
20 | QVQRVESGGGLVQAGGSLRLSCAASGRTFTYYAMGWYRQAPGKERELVAAISSRGGSTYYADSVKGRFTISRDNAKNTVYLQMNSLKPEDTAVYYCAAVLRFTRASRWPDFDYWGQGTQVTVSS | high polyreactivity
21 | QVQLQERSGGLVQAGGSLRLSCAASGYIFNNVNMGWYSQSPGKEREFVAAVGSGSSTNYADSVKGRFTISRDNTKNTGYLHMNSLKPEDTAVYYCNAVRRTGGHGDYWGLGTQVTVSS | high polyreactivity
22 | QVQLVESGGGLVQAGGSLRLSCAASGFTFHDYAMGWYRQAPGKERELVAAITKSGGRTYYADSVKGRFTISRDNAKNTVYLQMNSLKPEDTAVYYCNAVTLRRIYSNPEYDSWGQGTQVTVSS | high polyreactivity
23 | QVQLVESGGGLVQAGGSLRLSCPASGRTFRWYAMGWYRQAPGKERELVAAISQSGGSTYYAVSVKGRFTISRDNAKNTVYLQMNSLKPEDTAVYYFNAYPPYGGYAYGRGDYWGQGTQVTVSS | high polyreactivity
24 | QVQLVESGGGLVQAGGSLRLSCAASGFIFTNVMGWYRQAPGKERELVAAISGRGTSTYYADSVKGRFTISRDNAKNTVYLQMNSLKPEDTAVYYCAAYFTSRLDYWGQGTQVTVSS | high polyreactivity
25 | QVQLVESGGGLVQAGGSLRLSCAASGSTISRNAMGWYRQAPGKERELVAAITSKGDSTYYADSVKGRFTISRDNAKNTVYLQMNSLKPEDTAVYYCAAVRRGYKYDYWGQGTQVTVSS | low polyreactivity
26 | QVQLVESGGGLVQAGGSLRLSCAASGIIFQRNDMGWYRQAPGKERELVANIRDGGITYADSVKGRFTISRDNAKNTVYLQMNSLKPEDTAVYYCARDDTSPGYCDQSSNAAYYYWGQGTQVTVSS | low polyreactivity
27 | QVQLVESGGGLVQAGGSLRLSCAASGSIIYRYAMGWYRQAPGKEMELVAAISTAGSTNYADSVKGRFTISRDNAKNTVYLLMNCLKPEDTAVYYCAAKSYRGRTQRSYGYWGQGTQVSVSS | low polyreactivity
28 | QVQLVESGGGLVQAGGSLRLSCAASGSIFIGYAMGWYRQAPGKERELVAAISQSGGRTYYADSVKGRFTISRDNAKNTVYLQMNSLKPEDTAVYYCNKVTKSYFIYDYWGQGTQVTVSS | high polyreactivity
29 | QVQLVESGGGLVQAGGSLRLSCAASGFIFYSYAMGWYRQAPGKERELVAAITEDGDSTYYADSVKGRFTISRDNAKNTVYLQMNSLKPEDTAVYYCNTDLTFNGTSGDYDYWGQGTQVTVSS | low polyreactivity
30 | QVQLVESGGGLVQAGGSLRLSCASSGIIFYAYAMGWYRQAPGKERELVAAINFNTGRTYYADSVKGRFTISRDNAKNTVYLQMNSLKPEDTAVYYCAKSSYRNSGERDYWGQGTQVTVSS | high polyreactivity
31 | QVQLVESGGGLVQAGGSLRLSCAASGFTLKSYAMGWYRQAPGKERELVASISRRGGSTYYADSVKGRFTISRDNAKNTVYLQMNSLKPEDTAVYYCNADYVRYPGNAYDYWGQGTQVTVSS | high polyreactivity
